Reference: publication PMC11963481, “The Vacuolar Inositol Transporter BvINT1;1 Contributes to Raffinose Biosynthesis and Reactive Oxygen Species Scavenging During Cold Stress in Sugar Beet” (Plant, Cell & Environment, 2025)

Tested on: T1, O[C@H]1[C@H](O)[C@@H](O)[C@H](O)[C@@H](O)[C@H]1O
T1 construct: full-length CDS with C-terminal dileucine motif mutated (LL489/490AA) for plasma membrane targeting; cRNA-injected Xenopus laevis oocytes
Assay: two-electrode voltage clamp, inward currents in Xenopus oocytes, Michaelis-Menten fit
Type: cell-based, Beta vulgaris
Conditions: pH 5.5, room temperature, holding potential -20 mV, 96 mM NaCl bath, inositol/H+ symport, n = 7 oocytes

BvINT1;1 LL489/490AA (INT1;1^PM, BvINT1;1^PM) (Beta vulgaris subsp. vulgaris; L489A/L490A)
Km: 2300 ± 300 µM
